Test results reported in patent US12692524B2, “Sialyltransferases and their use in producing sialylated oligosaccharides” (Chr. Hansen A/S, priority 2017, dated 2026).

Key:
[1] = In vitro sialylation of LNT by protein extracts, LST-a/-b quantified by LC-MS/MS; type: biochemical; conditions: 5 mM LNT, 10 mM CMP-Neu5Ac, 16 hours, LC-MS/MS; relative quantity; n.d.: not detectable
Outline: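 E. coli BL21(DE3) crude extracts overexpressing sialyltransferases (IPTG 0.3 mM, 12–16 h at 30 °C) incubated 16 h with 5 mM LNT and 10 mM CMP-Neu5Ac in 50 mM Tris-HCl pH 7.5, 5 mM MgCl2. LST-a and LST-b measured by HILIC LC-MS/MS, MRM in ESI negative mode, against commercial standards.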

[2] = In vivo screening in E. coli #1363/#1730 with lactose as acceptor, sialyllactose identified by TLC; type: cell-based, Escherichia coli BL21(DE3); conditions: 1.5 mM lactose, 72 to 96 hours, qualitative via TLC
Outline: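 E. coli BL21(DE3) #1363/#1730 expressing sialyltransferases were grown at 30 °C in mineral salts medium with 2% glucose and induced with 0.3 mM IPTG. After 1 h, 1.5 mM lactose was added, plus 1.5 mM sialic acid for #1730, and incubation ran 72–96 h. Cell lysates were analysed by silica TLC with thymol staining.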

Molecule | Relative efficacy of sialyltransferases regarding in-vitro production of sialyllacto-N-tetraoses: LST-a [1] | Production of sialyllactose in-vivo [2] | Relative efficacy of sialyltransferases regarding in-vitro production of sialyllacto-N-tetraoses: LST-b [1]
SiaT41: sialyltransferase of Actinobacillus suis ATCC 33415, acc. AIJ32009, SEQ ID NO: 24 (protein, listed as Actinobacillus suis) MERTPQLQAVDIYIDFATIPSLSYFLHFLKHKHDDQRLRLFSLARFEMPQTLIEQYEGIIQFSRNVEHNVEPLLEQLQTILSQEGKQFELHLHLNLFHSFEMFLNLSPTYTQYKEKISKIVLHLYDDGSEGVMKQYQLQKSSSLVQDLAATKASLVSLFENGEGSFSQIDLIRYVWNAVLETHYYLLSDHFLLDEKLQPLKAELGHYQLLNLSAYQYLSSEDLLWLKQILKIDTELESLMQKLTAQPVYFFSGTTFFNISFEDKQRLANIHAILIREHLDPNSQLFIGEPYLFVFKGHPNSPEINQALREYYPNVIFLPENIPFEILTLLGFSPQKIGGFASTIHVNSEQSKLAKLFFLTSTDEQERQLSDGYIKQYALAQAMLEMQLVSQEQVYYCSLSS | 3 | 3′-SL | 
SiaT51: sialyltransferase of Photobacterium damselae subsp. damselae CIP 102761, acc. EEZ40509, SEQ ID NO: 32 (protein, listed as Photobacterium damsela) MKKILTVLSIFILSACNSDNTSLKETVSSNSADVVETETYQLTPIDAPSSFLSHSWEQTCGTPILNESDKQAISFDFVAPELKQDEKYCFTFKGITGDHRYITNTTLTVVAPTLEVYIDHASLPSLQQLIHIIQAKDEYPSNQRFVSWKRVTVDADNANKLNIHTYPLKGNNTSPEMVAAIDEYAQSKNRLNIEFYTNTAHVFNNLPPIIQPLYNNEKVKISHISLYDDGSSEYVSLYQWKDTPNKIETLEGEVSLLANYLAGTSPDAPKGMGNRYNWHKLYDTDYYFLREDYLDVEANLHDLRDYLGSSAKQMPWDEFAKLSDSQQTLFLDIVGFDKEQLQQQYSQSPLPNFIFTGTTTWAGGETKEYYAQQQVNVINNAINETSPYYLGKDYDLFFKGHPAGGVINDIILGSFPDMINIPAKISFEVLMMTDMLPDTVAGIASSLYFTIPADKVNFIVFTSSDTITDREEALKSPLVQVMLTLGIVKEKDVLFWADLPDCSSGVCIDK |  | 6′-SL | 10
SiaT34: sialyltransferase of Pasteurella multocida PM70, acc. NC_002663, SEQ ID NO: 6 (protein, listed as Pasteurella multocida) MDKFAEHEIPKAVIVAGNGESLSQIDYRLLPKNYDVFRCNQFYFEERYFLGNKIKAVFFTPGVFLEQYYTLYHLKRNNEYFVDNVILSSFNHPTVDLEKSQKIQALFIDVINGYEKYLSKLTAFDVYLRYKELYENQRITSGVYMCAVAIAMGYTDIYLTGIDFYQASEENYAFDNKKPNIIRLLPDFRKEKTLFSYHSKDIDLEALSFLQQHYHVNFYSISPMSPLSKHFPIPTVEDDCETTFVAPLKENYINDILLPPHFVYEKLGVDKLAAALEHHHHHH | 2.34 × 10^3 | 3′-SL | 
SiaT39: sialyltransferase of Alistipes shahii WAL 8301, acc. YP_007816735, SEQ ID NO: 23 (protein, listed as Alistipes shahii) MDDGTPSVSINGGTDFLSLDHLARSGKITVNAPAPWSVTLAPENYGQDEKPDWLTLSAEEGPAGYSEIDVTFAENPGPARSASLLFSCDGKTLAFTVSQSAGGTGFDAPDYYFYISVGTMPTLYSGLHLLSHDKPSYVSYERASTFDAAEFPDRAFVYPVADPTGHATNEELRAMSEAMKRRILEINAEDPTAVFGLWVDDLRCRLGYDWFVAQGIDSARVKVTMLSDGTATYNNFHNYFGDAATAEQNWNDYAAEVEALDWNHGGRYPETRAPEEFASYTWPYYLSTRPDYRLMLQNSSLMESSCPFIADRLAAMKMESVQPYELLTALPEASKQQFYRMAKFDYARFAGLFDLSPKKNLIIIGTSHSSAASEQQQAAYVERIIQQYGSDYDIFFKPHPADSSSAGYPDRFEGLTLLPGQMPFEIFVWALLDKIDMIGGYPSTTFISVPLDKVGFLFAADADGLVRPLNILFRDAANVEWIQ | 4 | 3′-SL | 
SiaT32: sialyltransferase of Alistipes sp. AL-1, acc. WP_032134786, SEQ ID NO: 15 (protein, listed as Alistipes sp.) MALLSGTAACSDDEVSQNLIVINGGEHFLSLDGLARAGKISVLAPAPWRVTKAAGDTWFRLSATEGPAGYSEVELSLDENPGAARSAQLAFACGDAIVPFRLSQGALSAGYDSPDYYFYVTFGTMPTLYAGIHLLSHDKPGYVFYSRSKTFDPAEFPARAEVTTAADRTADATQAEMEAMAREMKRRILEINSADPTAVFGLYVDDLRCRIGYDWFVAQGIDSARVKVSMLSDGTGTYNNFYNYFGDAATAEQNWESYASEVEALDWNHGGRYPETRSLPEFESYTWPYYLSTRPDYRLVVQDGSLLESSCPFITEKLGEMEIESIQPYEMLSALPESSRKRFYDMAGFDYDKFAALFDASPKKNLIIIGTSHADDASARLQRDYVARIMEQYGAQYDVFFKPHPADTTSAGYETEFPGLTLLPGQMPFEIFVWSLIDRVDMIGGYPSTVFLTVPVDKVRFIFAADAASLVRPLNILFRDATDVEWMQ | 64 | 3′-SL, 6′-SL | 
SiaT42: sialyltransferase of Actinobacillus capsulatus DSM 19761, acc. WP_018652686, SEQ ID NO: 25 (protein, listed as Actinobacillus capsulatus) MERIPQLQAVDIYIDFATIPSLSYFLHFLKHKHDHQRLRLFSLARFEMPQTVIEQYEGIIQFSRNVEHNVEQLLEQLQTILSQEGKQFELHLHLNLFHSFEMFLNLSPTYTKYKEKISKIVLHLYDDGSEGVMKQYQLQQSNSLAQDLASTKASLVSLFKNGEGAFSQIDLIRYVWNAVLETHYYLLSDHFLAHEKLQPLKIELGHYQLLNLSAYQYLSSEDLLWLKQILKIDAELESLMHKLTTQPVYFFSGTTFFNISFEDKQRLANIHAILIREHLDPNSQLFIGEPYLFVFKGHPNSPEINQALREYYPNAIFLPENIPFEILTLLGFSPQKIGGFASTIHVNSEQSKLAKLFFLTSTDEQERNRSDGYIKQYALAQAMLEMQLVSQEQVYYCSLSS | 3 | 3′-SL | 
SiaT73: sialyltransferase of Haemophilus somnus 2336, acc. ACA31170, SEQ ID NO: 20 (protein, listed as Haemophilus somnus) MKYNIKIKAIVIVSSLRMLLIFLMLNKYHLDEVLFVFNEGFELHKKYKIKHYVAIKKKITKFWRLYYKLYFYRFKIDRIPVYGADHLGWTDYFLKYFDFYLIEDGIANFSPKRYEINLTRNIPVFGFHKTVKKIYLTSLENVPSDIRHKVELISLEHLWKTRTAQEQHNILDFFAFNLDSLISLKMKKYILFTQCLSEDRVISEQEKIAIYQHIIKNYDERLLVIKPHPRETTDYQKYFENVFVYQDVVPSELFELLDVNFERVITLFSTAVFKYDRNIVDFYGTRIHDKIYQWFGDIKF | 15 | 3′-SL | 
SiaT43: sialyltransferase of Bibersteinia trehalosi USDA-ARS-USMARC-189, acc. AHG84654, SEQ ID NO: 18 (protein, listed as Bibersteinia trehalosi) MEFCKMATTQKICVYLDYATIPSLNYILHFAQHFEDQETIRLFGLSRFHIPESVIQRYPKGVVQFYPNQEKDFSALLLALKNILIEVKQQQRKCEIELHLNLFHYQLLLLPFLSLYLDTQDYCHLTLKFYDDGSEAISALQELALAPDLAAQIQFEKQQFDELVVKKSFKLSLLSRYFWGKLFESEYIWFNQAILQKAELQILKQEISSSRQMDFAIYQQMSDEQKQLVLEILNIDLNKVAYLKQLMENQPSFLFLGTTLFNITQETKTWLMQMHVDLIQQYCLPSGQFFNNKAGYLCFYKGHPNEKEMNQMILSQFKNLIALPDDIPLEILLLLGVIPSKVGGFASSALFNFTPAQIENIIFFTPRYFEKDNRLHATQYRLMQGLIELGYLDAEKSVTHFEIMQLLTKE | 21 | 3′-SL | 
SiaT37: sialyltransferase of Campylobacter jejuni strain 81-176, acc. AAL09368, SEQ ID NO: 16 (protein, listed as Campylobacter jejuni) MKKVIIAGNGPSLKEIDYSRLPNDFDVFRCNQFYFEDKYYLGKKCKAVFYTPNFFFEQYYTLKHLIQNQEYETELIMCSNYNQAHLENENFVKTFYDYFPDAHLGYDFFKQLKEFNAYFKFHEIYFNQRITSGVYMCAVAIALGYKEIYLSGIDFYQNGSSYAFDTKQENLLKLAPDFKNDRSHYIGHSKNTDIKALEFLEKTYKIKLYCLCPNSLLANFIELAPNLNSNFIIQEKNNYTKDILIPSSEAYGKFSKNINFKKIKIKENVYYKLIKDLLRLPSDIKHYFKGK | 40 | 3′-SL | 
